Assay results: article PMC12552129, “Methylthio-alkane reductases use nitrogenase metalloclusters for carbon–sulfur bond cleavage” (Nature Catalysis, 2025)
Values joined by “and” are separate entries in the source; they are usually repeats but may differ in a detail not shown here. Identical values can stand only once. Blank lines part the entries; values can stand above or below the binder they belong to.

What was measured:
[1] = biological target: T1, MarD subunit of the methylthio-alkane reductase catalytic component from Rhodospirillum rubrum (Strep-tagged) (Rhodospirillum rubrum, UniProt Q2RW97 1-511); assay: mass photometry; TwoMP mass photometer; 0.5 µl of sample (500 nM stock, 4 mM sodium DT) added to 19.5 µl anaerobic measurement buffer (150 mM NaCl, 50 mM Tris pH 7.8, 10% glycerol, 10 mM sodium DT); each component measured alone; conditions: both partners purified
T1 construct: MarD, subunit of the catalytic component of the methylthio-alkane reductase (marHDK) of Rhodospirillum rubrum; 57.5 kDa with the Strep tag; Holds the [Fe8S9C]-cluster; also called D1; source: Rhodobacter capsulatus MM0422 (plasmid-based, anfH promoter), soluble fraction of the lysate; purified anaerobically with MarK (Strep-Tactin XT 4Flow, PD-10 desalting); not shown: Strep-tag II, C-terminal, …
T1 sequence: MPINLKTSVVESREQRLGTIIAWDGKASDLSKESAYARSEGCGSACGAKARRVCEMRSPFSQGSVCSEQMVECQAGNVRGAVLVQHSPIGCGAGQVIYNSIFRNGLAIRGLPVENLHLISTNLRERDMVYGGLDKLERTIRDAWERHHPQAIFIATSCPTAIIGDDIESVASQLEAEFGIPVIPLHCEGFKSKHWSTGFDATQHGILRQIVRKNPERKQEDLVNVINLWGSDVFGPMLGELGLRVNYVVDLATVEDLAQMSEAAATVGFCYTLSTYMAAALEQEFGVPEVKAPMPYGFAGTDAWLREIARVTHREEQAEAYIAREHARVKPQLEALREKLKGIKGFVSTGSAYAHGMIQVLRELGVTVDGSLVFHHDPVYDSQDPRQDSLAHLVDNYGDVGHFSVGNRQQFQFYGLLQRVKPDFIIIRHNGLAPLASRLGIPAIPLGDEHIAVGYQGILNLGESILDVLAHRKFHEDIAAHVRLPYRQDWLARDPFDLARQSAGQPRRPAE

[2] = biological target: the molecule itself; assay: as above
[3] = biological target: T2, Mar(DK)2, catalytic component of the methylthio-alkane reductase from Rhodospirillum rubrum (Rhodospirillum rubrum, UniProt Q2RW97 1-511; Q2RW98 1-466); assay: cryo-EM structure; MgADP-AlF3-trapped complex: 22 nmol MarH2 and 3 nmol Mar(DK)2 in 100 mM MOPS pH 7.3, 50 mM Tris pH 7.8, 100 mM NaCl, 5 mM DT, 4 mM NaF, 0.2 mM AlCl3, 8 mM MgCl2, 1 mM ATP, 3 h at 30 °C; isolated by size-exclusion chromatography (HiLoad 26/600 Superdex 200 pg); anaerobic single-particle cryo-EM; conditions: both partners purified
T2 construct: MarD of Rhodospirillum rubrum, as the chain of m2; MarK of Rhodospirillum rubrum, as the chain of m3; Heterotetramer by mass photometry (227 kDa measured, 217 kDa theoretical); holds two P-clusters and two [Fe8S9C]-clusters; No tag cleavage is described; The deposited model (MarDK2H2) holds only one of the two MarD copies; copies: 2 + 2
T2 sequence 1: T1 sequence
T2 sequence 2: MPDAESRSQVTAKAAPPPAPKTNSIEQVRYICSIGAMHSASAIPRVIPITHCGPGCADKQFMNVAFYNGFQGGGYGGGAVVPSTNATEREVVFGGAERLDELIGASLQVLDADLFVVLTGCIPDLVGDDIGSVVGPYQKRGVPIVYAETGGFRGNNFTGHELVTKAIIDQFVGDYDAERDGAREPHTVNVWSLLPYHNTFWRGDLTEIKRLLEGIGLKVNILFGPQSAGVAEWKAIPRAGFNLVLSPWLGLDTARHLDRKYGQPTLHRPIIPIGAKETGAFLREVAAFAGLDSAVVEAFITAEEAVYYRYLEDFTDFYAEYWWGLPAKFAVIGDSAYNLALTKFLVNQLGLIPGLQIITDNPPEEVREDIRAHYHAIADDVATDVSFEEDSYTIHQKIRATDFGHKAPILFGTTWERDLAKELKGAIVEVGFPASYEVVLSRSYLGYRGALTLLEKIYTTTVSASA

binding result [1]: binds
B1: MarK subunit of the methylthio-alkane reductase catalytic component from Rhodospirillum rubrum (enzyme)
chain: T2 sequence 2
notes: MarK, subunit of the catalytic component of the methylthio-alkane reductase (marHDK) of Rhodospirillum rubrum; 50.8 kDa; No tag is described for MarK; also called K1 and K2; source: Rhodobacter capsulatus MM0422 (plasmid-based, anfH promoter), soluble fraction of the lysate; purified anaerobically with Strep-tagged MarD (Strep-Tactin XT 4Flow, PD-10 desalting)

stoichiometry N [3]: 1 and 2
B2: MarH2, reductase component of the methylthio-alkane reductase from Rhodospirillum rubrum (His-tagged MarH) (enzyme)
chain: AKSPKQIAIYGKGGIGKSTTTSNISAALAEAGYKVMQFGCDPKSDSTNTLRGGDYIPSVLDLLRENARVDAHEAIFQGFGGIYCVEAGGPAPGVGCAGRGIITAVELLKQQNVFEELDLDYVIFDVLGDVVCGGFAVPIREGIAEHVFTVSSSDFMAIYAANNLFKGIQKYSNAGGALLGGVIANSINTDFHRDIIDDFVARTQTQVVQYVPRSLTVTQAELQGRTTIEAAPESAQAEIYRTLARSIADHTDSKVPTPLNAQELRDWSASWANQLIEIERASQPIPALAS
notes: MarH, reductase subunit of the methylthio-alkane reductase (marHDK) of Rhodospirillum rubrum; 31.9 kDa with the His tag; Homodimer by mass photometry; holds one [Fe4S4]-cluster in the dimer interface; No tag cleavage is described, and the theoretical mass of 64 kDa equals twice the 31.9 kDa of His-tagged MarH; also called H1 and H2; source: Rhodobacter capsulatus MM0422 (plasmid-based, anfH …)
stoichiometry N [2]: 2
